Assays:
[1] = Platinum release from PBS; format: physicochemical; conditions: 37° C.
Procedure: The percent of small platinum species released over time was measured by dissolving about 30 mg of the polymer-platinum conjugate in 15 mL of phosphate buffered saline (10 mM phosphate, 123 mM Cl^−) and incubating the solution at 37° C. in a water bath. At indicated times, 2.0 mL aliquots were transferred to a centrifugal filter with a 3 kDa nominal molecular weight cutoff (Centricon YM-3 from Millipore) and spun until >1.5 mL of filtrate had accumulated. The timed filtrates and the original solution were analyzed for platinum by ICP-OES. The percent of small Pt species released was determined using the formula: ((ppm Pt in filtrate)/(ppm Pt in stock solution))×100.

[2] = Maximum tolerated dose on a qd×5 schedule in the B16 melanoma model; format: in vivo; conditions: IP, C57BL/6 mice
Procedure: (§1) A study was conducted to compare the antitumor activity of poly(HPMA)-GFLG-Ama=Pt=DACH with that of carboplatin in the B16 melanoma model when each agent was administered as an IP injection daily for 5 days (qd×5). The poly(HPMA)-GFLG-Ama=Pt=DACH material was also given at days 15, 16, and 17. Both compounds were given at their respective maximum tolerated (equitoxic) doses on this regimen.
(§2) Female C57BL/6 mice weighing 18–20 g were implanted s.c. with 10^6 B16F10 tumor cells harvested from tissue culture. The size of the resulting tumor was followed individually throughout the study. Tumor mass (in mg) was calculated as (W^2×L)/2, where W is the shorter tumor dimension and L is the longer tumor dimension. Individual treatments were administered when the tumor was 75–100 mg in size. The injection volume was 0.04 mL per gram of body weight, and the drug was administered intraperitoneally. Tumor mass and body weight were measured daily. Data are expressed as the mean±SEM of the tumor mass and are plotted until 50% of the animals in each treatment group have died or been sacrificed due to excessive tumor mass, tumor ulceration, or morbidity. For comparison of the activity of different agents, each administered at its respective maximum tolerated doses (MTD), the MTD is defined as that dose which reproducibly induces no more than 10% (1 out of each 10 animals per group) early toxic deaths not attributable to tumor burden, and which results in a mean maximum body weight loss (i.e., the group mean of the nadir in each individual mouse weight, regardless of the day on which it occurred) of 10–15%, followed by recovery in lost weight.
(§3) A study was conducted to compare the antitumor activity of p(HPMA)-GFLG-C3-Sulf-Ama=Pt=DACH with that of carboplatin in the B16 melanoma model when each agent was administered as an IP injection daily for 5 days (qd×5). Both compounds were given at their respective maximum tolerated (equitoxic) doses on this regimen.
(§4) The methods utilized in this study were identical to those utilized for the p(HPMA)-GFLG-C3-Sulf-Ama=Pt=DACH study of Example 38.

B16 melanoma = experiment: Antitumor activity in the B16 melanoma model, multi-dose protocol; format: in vivo; conditions: s.c. B16F10 in C57BL/6 mice
Procedure: as §1, §2, §3, §4

Bl6FI0 melanoma cells = experiment: Clonogenic (colony-formation) assay; format: cell-based, murine; conditions: 7 days incubation
Procedure: The relative cytotoxic activity of various O,O′—Pt chelate analogs were evaluated in vitro by means of a clonogenic (colony-formation) assay employing a tissue culture of Bl6FI0 melanoma cells. In this way, the activity of the analogs was compared to that of cisplatin and carboplatin. The effect of conversion to an N,O—Pt chelate was also evaluated. Briefly, cells were seeded into culture dishes and allowed to attach. The cultures were incubated for 7 days in medium containing the desired concentration of the test agent. After fixation, the number of cell clusters containing >50 cells was scored as a colony. Each concentration of test agent was assayed in triplicate. The mean number of colonies in each of the triplicate dishes was divided by the mean number of colonies in the control (no test agent) dishes to obtain a percent survival value for each concentration of test agent. The IC50 (concentration resulting in 50% inhibition of growth) of each of the agents was determined by linear regression analysis using the data values directly above and below the 50% survival point.

[3] = Single-dose IV maximum tolerated dose study; format: in vivo; conditions: mice, highest dose with no drug-induced deaths
Source text: For these studies, the MTD was defined as the highest dose evaluated in which no mouse deaths resulted from drug-induced toxicity.

[4] = Dependence on pH of the isomer ratio of O,O′—Pt to N,O—Pt chelate (195Pt NMR of timed aliquots); format: physicochemical
Procedure: The percent of O,O′- and N,O-chelate in timed aliquots of reactions mixtures were determined by removing enough of the reaction mixture (4–15 mL depending on concentration) to give greater than 100 mg of Pt-chelate if only ^195Pt NMR spectroscopy was to be done or about 200 mg if % Pt, and % H2O were also to be determined. The aliquots were purified by ultrafiltration using a Centricon Plus-20 centrifugal filter with a 5 kDa Biomax membrane from Millipore. The charged device was spun at the recommended RCF until less than 1 mL remained. The filtrate was discarded, the retentate was diluted with 15–18 mL water and the sample was centrifuged. This was repeated once more, and the retentate was lyophilized to give the sample for analysis.
^195Pt NMR spectra were obtained from a filtered 0.70 mL solution in 93/7 H2O/D2O in a 5 mm tube. Enough sample (80–120 mg) was used to give a solution that was >50 mM in platinum. The probe was tuned for each sample. A pulse width of 90 degrees, an acquisition time of 10 msec, a spectral window of 100 kHz and no delay was used. The transmitter was tuned to approximately midway between the O,O′—Pt and N,O—Pt chelates shifts (−1896 ppm for cis-diammine Pt and at −2450 for DACH—Pt). Between 50,000 and 1 million transients were typically required to obtain a sufficient (>35:1) s/n ratio for the cis-diammine-Pt and DACH=Pt species, respectively. The resulting FID was increasingly left-shifted until a flat baseline was obtained, a 100 Hz line broadening was applied, and a Fourier fill of 2048 was applied before processing. Integral regions were set and the spectrum's baseline was subjected to a spline fit using VNMR software v6.1. The sample was referenced externally to a 100 mM sample of K2PtCl4 in 95/5H2O/D2O and 100 mM HCl at −1624 ppm. This was also used to determine the 90 degree pulse width and T1.
Four 50 mL Centrifuge tubes were each charged with 1.00 g of p(HPMA)-GFLG-Ama=Pt(NH3)2 (either 100% N,O-chelate) or a 92% O,O-chelate, 8% N,O-chelate mixture. These materials were dissolved in 27 mL Milli-Q water (approx a 4 wt % solution) and adjusted to the pH ranges desired using 1 M NaOH or 5% HClO4 as appropriate. The samples were then heated, with stirring, in a 38° C. water bath and maintained within their specified pH ranges. Timed aliquots were taken and frozen until a suitable time at which point the solutions were concentrated by centrifugal ultrafiltration (one spin down at 4800 rpm, 30° C.) and then transferred to an NMR tube. A small amount of D2O was added to each tube and the ^195Pt NMR spectra were recorded.

[5] = Example 39 study, IP qd×5 at MTD
[6] = Example 38 study, IP qd×5 at MTD (polymer also days 15, 16, 17)
[7] = pH 5.0–5.5, 38° C., 100 mM ClO4^−, 1 h
[8] = pH 5.0–5.5, 38° C., 100 mM ClO4^−, 5 h
[9] = pH 5.0–5.5, 38° C., 100 mM ClO4^−, 8 h
[10] = pH 5.0–5.5, 38° C., 100 mM ClO4^−, 22 h
[11] = pH 5.0–5.5, 38° C., 100 mM Cl^−, 1 h
[12] = pH 5.0–5.5, 38° C., 100 mM Cl^−, 5 h
[13] = pH 5.0–5.5, 38° C., 100 mM Cl^−, 8 h
[14] = pH 5.0–5.5, 38° C., 100 mM Cl^−, 22 h

With “poly(HPMA)-GFLG-NH(CH2)3SO2-Ama=Pt=DACH N,O-chelate [Example 29]” the “Pt release in PBS” value ([1]; 3 hours) was 2.12%, the “Pt release in PBS” value ([1]; 24 hours) was 4.54% and the maximum tolerated dose [2] was 75 mg Pt/kg. For the same molecule, the “inhibition of tumor growth” value (B16 melanoma; [5]) was “more marked inhibition in tumor growth”.
With N.N.O=C([O-])C1(C(=O)[O-])CCC1.[Pt+2] [Carboplatin, reference compound] the IC50 (Bl6FI0 melanoma cells) was 2400 nM, the maximum tolerated dose [2] was 60 mg/kg and the “maximum tolerated dose, equivalent in Pt” value [2] was 32 mg Pt/kg. For the same molecule, the “inhibition of tumor growth” value (B16 melanoma; [6]) was “modest inhibition of tumor growth” and the “inhibition of tumor growth” value (B16 melanoma; [5]) was “very little inhibition of tumor growth”.
With “poly(HPMA)-GFLG-C3-Sulf-Ama=Pt(NH3)2 N,O-chelate [Example 28]” the “Pt release in PBS” value ([1]; 3 hours) was 3.02% and the “Pt release in PBS” value ([1]; 24 hours) was 5.44%.
In the case of “poly(HPMA)-GFLG-Ama=Pt(NH3)2, N,O—Pt chelate, >351 kDa [Example 14]”, the “Pt release in PBS” value ([1]; 3 hours) is reported as 0.68% and the “Pt release in PBS” value ([1]; 24 hours) is reported as 2.28%.
For “poly(HPMA)-GGGG-Ama=Pt=1R,2R-DACH N,O-Chelate [Example 21]”, the “Pt release in PBS” value ([1]; 3 hours) was 0.972% and the “Pt release in PBS” value ([1]; 24 hours) was 3.173%.
For “poly(HPMA)-GG-Ama=Pt(NH3)2 N,O Chelate [Example 17]”, the “Pt release in PBS” value ([1]; 3 hours) was 1.4% and the “Pt release in PBS” value ([1]; 24 hours) was 4.6%.
For “poly(HPMA)-GFLG-Ama=Pt=DACH, N,O—Pt chelate [Example 6]”, the IC50 (Bl6FI0 melanoma cells) was under 4000 nM.
N.N.[Cl][Pt][Cl] [Cisplatin, cis-diamminedichloroplatinum(II), reference compound] gave an IC50 (Bl6FI0 melanoma cells) of 500 nM.
“p(HPMA)-GFLG-Ama═Pt═(NH3)2, 45 kDa, O,O′—Pt” gave an IC50 (Bl6FI0 melanoma cells) of 1000 nM.
With “poly(HPMA)-GG-Ama=Pt=DACH N,O-Chelate [Example 18]” the “Pt release in PBS” value ([1]; 3 hours) was 1.3% and the “Pt release in PBS” value ([1]; 24 hours) was 5.5%.
In the case of “poly(HPMA)=GFLG-Ama=Pt=DACH, O,O′—Pt chelate [Example 5]”, the “Pt release in PBS” value ([1]; 3 hours) is reported as 6.0%, the “Pt release in PBS” value ([1]; 24 hours) is reported as 10.9% and the IC50 (Bl6FI0 melanoma cells) is reported as 1000 nM.
With “p(HPMA)-GFLG-Ama═Pt═(NH3)2, 90 kDa, O,O′—Pt” the IC50 (Bl6FI0 melanoma cells) was 900 nM.
With “poly(HPMA)-GG-NH(CH2)3SO2Ama=Pt=DACH, Approx. 22 kDa [Example 25]” the “Pt release in PBS” value ([1]; 3 hours) was 1.0% and the “Pt release in PBS” value ([1]; 24 hours) was 1.93%.
For “poly(HPMA)-GFLG-Ama=Pt(NH3)2O,O′—Pt chelate [Example 3]”, the “maximum tolerated dose (MTD)” value [3] was 80–100 mg PVkg, the IC50 (Bl6FI0 melanoma cells) was 800 to 1100 nM and the “N,O— chelate” value ([4]; pH 3.0–3.5, 38° C., 1 h) was 0%. The “O,O— chelate” value ([4]; pH 3.0–3.5, 38° C., 1 h) was 100%, the “N,O— chelate” value ([4]; pH 3.0–3.5, 38° C., 5 h) was 3% and the “O,O— chelate” value ([4]; pH 3.0–3.5, 38° C., 5 h) was 97%. For the same molecule, the “N,O— chelate” value ([4]; pH 3.0–3.5, 38° C., 20 h) was 2%, the “O,O— chelate” value ([4]; pH 3.0–3.5, 38° C., 20 h) was 98% and the “N,O— chelate” value ([4]; pH 4.0–4.5, 38° C., 1 h) was 25%. For the same molecule, the “O,O— chelate” value ([4]; pH 4.0–4.5, 38° C., 1 h) was 75%, the “N,O— chelate” value ([4]; pH 4.0–4.5, 38° C., 5 h) was 21% and the “O,O— chelate” value ([4]; pH 4.0–4.5, 38° C., 5 h) was 79%. The “N,O— chelate” value ([4]; pH 4.0–4.5, 38° C., 20 h) was 28%, the “O,O— chelate” value ([4]; pH 4.0–4.5, 38° C., 20 h) was 72% and the “N,O— chelate” value [4, 7] was 31%. The “O,O— chelate” value [4, 7] was 69%, the “N,O— chelate” value [4, 8] was 56% and the “O,O— chelate” value [4, 8] was 44%. For the same molecule, the “N,O— chelate” value [4, 9] was 67%, the “O,O— chelate” value [4, 9] was 33% and the “N,O— chelate” value [4, 10] was 60%. The “O,O— chelate” value [4, 10] was 40%, the “N,O— chelate” value [4, 11] was 31% and the “O,O— chelate” value [4, 11] was 69%. The “N,O— chelate” value [4, 12] was 54%, the “O,O— chelate” value [4, 12] was 46% and the “N,O— chelate” value [4, 13] was 68%. The “O,O— chelate” value [4, 13] was 32%, the “N,O— chelate” value [4, 14] was 68% and the “O,O— chelate” value [4, 14] was 32%. For the same molecule, the “N,O— chelate” value ([4]; pH 5.0–5.5, 38° C., 1 h) was 33%, the “O,O— chelate” value ([4]; pH 5.0–5.5, 38° C., 1 h) was 67% and the “N,O— chelate” value ([4]; pH 5.0–5.5, 38° C., 5 h) was 49%. For the same molecule, the “O,O— chelate” value ([4]; pH 5.0–5.5, 38° C., 5 h) was 51%, the “N,O— chelate” value ([4]; pH 5.0–5.5, 38° C., 20 h) was 65% and the “O,O— chelate” value ([4]; pH 5.0–5.5, 38° C., 20 h) was 35%. For the same molecule, the “N,O— chelate” value ([4]; pH 6.0–6.5, 38° C., 1 h) was 43%, the “O,O— chelate” value ([4]; pH 6.0–6.5, 38° C., 1 h) was 57% and the “N,O— chelate” value ([4]; pH 6.0–6.5, 38° C., 5 h) was 66%. For the same molecule, the “O,O— chelate” value ([4]; pH 6.0–6.5, 38° C., 5 h) was 34%, the “N,O— chelate” value ([4]; pH 6.0–6.5, 38° C., 20 h) was 91% and the “O,O— chelate” value ([4]; pH 6.0–6.5, 38° C., 20 h) was 9%.
For p(HPMA)-GFLG-Ama=Pt=DACH, the maximum tolerated dose [2] was 100 mg Pt/kg and the “inhibition of tumor growth” value (B16 melanoma; [6]) was “tumor growth was substantially slowed and prolonged”.

Reference: US7166733B2, “O,O'-Amidomalonate and N,O-Amidomalonate platinum complexes” (priority 2000, dated 2007)
